# From patent US20260266848A1, “COMPOSITIONS AND METHODS FOR DIAGNOSING AND TREATING DYSTONIA” (Duke University, priority 2023, published 2026)
# B1: Picalm (protein, UniProt Q7M6Y3 2-660, looked up)
# Phosphatidylinositol-binding …: SGQSLTDRITAAQHSVTGSAVSKTVCKATTHEIMGPKKKHLDYLIQCTNEMNVNIPQLADSLFERTTNSSWVVVFKSLITTHHLMVYGNERFIQYLASRNTLFNLSNFLDKSGLQGYDMSTFIRRYSRYLNEKAVSYRQVAFDFTKVKRGADGVMRTMNTEKLLKTVPIIQNQMDALLDFNVNSNELTNGVINAAFMLLFKDAIRLFAAYNEGIINLLEKYFDMKKNQCKEGLDIYKKFLTRMTRISEFLKVAEQVGIDRGDIPDLSQAPSSLLDALEQHLASLEGKKIKDSTAASRATTLSNAVSSLASTGLSLTKVDEREKQAALEEEQARLKALKEQRLKELAKKPHTSLTTAASPVSTSAGGIMTAPAIDIFSTPSSSNSTSKLPNDLLDLQQPTFHPSVHAMSAAPQGASTWGDPFSATLDAVEDAIPSLNPFLTKSSGDVHLPIASDVSTFTTRTPTHEMFVGFSPSPVAQPHSSAGLNVDFESVFGNKSTNVAVDSGGFDELGGLLKPTVASQNQSLPVAKLPPNKLVSDDLDSSLANLVGNLGIGNGTTKNDVSWSQPGEKKLTGGSNWQPKVAPTTAWSAATMNGMHFPQYAPPVMAYPATTPTGMIGYGIPPQMGSVPVMTQPTLIYSQPVMRPPNPFGPVSGAQIQFM
# B2: Vps26b (protein, UniProt Q8C0E2 1-336, looked up)
# Vacuolar protein …: MSFFGFGQSVEVEILLNDAESRKRAEHKTEDGKKEKYFLFYDGETVSGKVSLSLKNPNKRLEHQGIKIEFIGQIELYYDRGNHHEFVSLVKDLARPGEITQSQAFDFEFTHVEKPYESYTGQNVKLRYFLRATISRRLNDVVKEMDIVVHTLSTYPELNSSIKMEVGIEDCLHIEFEYNKSKYHLKDVIVGKIYFLLVRIKIKHMEIDIIKRETTGTGPNVYHENDTIAKYEIMDGAPVRGESIPIRLFLAGYELTPTMRDINKKFSVRYYLNLVLIDEEERRYFKQQEVVLWRKGDIVRKSMSHQAAIASQRFEGTTSLGEVRTPGQLSDNNSRQ
# B3: Wars (protein, UniProt P32921 1-481, looked up)
# Tryptophan--tRNA ligase, …: MADMPSGESCTSPLELFNSIATQGELVRSLKAGNAPKDEIDSAVKMLLSLKMSYKAAMGEEYKAGCPPGNPTAGRNCDSDATKASEDFVDPWTVRTSSAKGIDYDKLIVQFGSSKIDKELINRIERATGQRPHRFLRRGIFFSHRDMNQILDAYENKKPFYLYTGRGPSSEAMHLGHLVPFIFTKWLQDVFNVPLVIQMSDDEKYLWKDLTLEQAYSYTVENAKDIIACGFDINKTFIFSDLEYMGQSPGFYRNVVKIQKHVTFNQVKGIFGFTDSDCIGKISFPAVQAAPSFSNSFPKIFRDRTDIQCLIPCAIDQDPYFRMTRDVAPRIGHPKPALLHSTFFPALQGAQTKMSASDPNSSIFLTDTAKQIKSKVNKHAFSGGRDTVEEHRQFGGNCEVDVSFMYLTFFLEDDDRLEQIRKDYTSGAMLTGELKKTLIDVLQPLIAEHQARRKAVTEETVKEFMTPRQLSFHFQCFCFDT
# B4: Megf10 (protein, UniProt Q6DIB5 26-1147, looked up)
# Multiple epidermal growth …: LNLEDPNVCSHWESYSVTVQESYPHPFDQIYYTSCTDILNWFKCTRHRISYRTAYRHGEKTMYRRKSQCCPGFYESRDMCVPHCADKCVHGRCIAPNTCQCEPGWGGTNCSSACDGDHWGPHCSSRCQCKNRALCNPITGACHCAAGYRGWRCEDRCEQGTYGNDCHQRCQCQNGATCDHITGECRCSPGYTGAFCEDLCPPGKHGPHCEQRCPCQNGGVCHHVTGECSCPSGWMGTVCGQPCPEGRFGKNCSQECQCHNGGTCDAATGQCHCSPGYTGERCQDECPVGSYGVRCAEACRCVNGGKCYHVSGTCLCEAGFSGELCEARLCPEGLYGIKCDKRCPCHLDNTHSCHPMSGECGCKPGWSGLYCNETCSPGFYGEACQQICSCQNGADCDSVTGRCACAPGFKGTDCSTPCPLGRYGINCSSRCGCKNDAVCSPVDGSCICKAGWHGVDCSIRCPSGTWGFGCNLTCQCLNGGACNTLDGTCTCAPGWRGAKCEFPCQDGTYGLNCAERCDCSHADGCHPTTGHCRCLPGWSGVHCDSVCAEGRWGPNCSLPCYCKNGASCSPDDGICECAPGFRGTTCQRICSPGFYGHRCSQTCPQCVHSSGPCHHITGLCDCLPGFTGALCNEVCPSGRFGKNCAGVCTCTNNGTCNPIDRSCQCYPGWIGSDCSQPCPPAHWGPNCIHTCNCHNGAFCSAYDGECKCTPGWTGLYCTQRCPLGFYGKDCALICQCQNGADCDHISGQCTCRTGFMGRHCEQKCPAGTYGYGCRQICDCLNNSTCDHITGTCYCSPGWKGARCDQAGVIIVGNLNSLSRTSTALPADSYQIGAIAGIVVLVLVVLFLLALFIIYRHKQKRKESSMPAVTYTPAMRVINADYTIAETLPHSNGGNANSHYFTNPSYHTLSQCATSPHVNNRDRMTIAKSKNNQLFVNLKNVNPGKRGTLVDCTGTLPADWKQGGYLNELGAFGLDRSYMGKSLKDLGKNSEYNSSTCSLSSSENPYATIKDPPALLPKSSECGYVEMKSPARRDSPYAEINNSTPANRNVYEVEPTVSVVQGVFSNSGHVTQDPYDLPKNSHIPCHYDLLPVRDSSSSPKREDGGGSNSTSSNSTSSSSSSSE
# B5: Copg2 (protein, UniProt Q9QXK3 1-871, looked up)
# Coatomer subunit gamma-2: MIKKFDKKDEESGSGSNPFQHLEKSAVLQEARIFNETPINPRRCLHILTKILYLLNQGEHFGTMEATEAFFAMTRLFQSNDQTLRRMCYLTIKEMATISEDVIIVTSSLTKDMTGKEDVYRGPAIRALCRITDGTMLQAVERYMKQAIVDKVSSVASSALVSSLHMMKISYDVVKRWINEAQEAASSDNIMVQYHALGVLYHLRKNDRLAVSKMLNKFTKSGLKSQFAYCMLIRIASRLLKESEDGHESPLFDFIESCLRNKHEMVIYEAASAIIHLPNCTARELAPAVSVLQLFCSSPKPALRYAAVRTLNKVAMKHPSAVTACNLDLENLITDSNRSIATLAITTLLKTGSESSVDRLMKQISSFVSEISDEFKVVVVQAISALCHKYPRKHSVMMTFLSNMLRDDGGFEYKKAIVDCIISIVEENPESKEAGLAHLCEFIEDCEHTVLATKILHLLGKEGPRTPVPSKYIRFIFNRVVLENEAVRAAAVSALAKFGAQNESLLPSILVLLQRCMMDTDDEVRDRATFYLNVLQQRQMALNATYIFNGLTVSIPGMEKALHQYTLEPSEKPFDMKSIPLAMAPVFEQKSEITLVTPKPEKLAPSRQDIFQEQLAAIPEFMNLGPLFKSSEPVQLTEAETEYFVRCVKHMFTDHIVFQFDCTNTLNDQLLEKVTVQMEPSDSYEVLCCIPAPSLPYNQPGICYTLVRLPDEDPTAVAGTFSCTMKFTVRDCDPNTGVPDEDGYDDEYVLEDLEVTVSDHIQKILKPNFAAAWEEVGDAFEKEETFALSSTKTLEEAVNNIITFLGMQPCERSDKVPENKNSHSLYLAGVYRGGYDLLVRSRLALADGVTMQVTVRSKERTPVDVILASVG
# System: DYT-TOR1A MEF EVs
# Assay: Quantitative LC-MS/MS proteomics of EVs from drug-treated DYT-TOR1A MEF cultures (ritonavir, salubrinal)
# Type: cell-based, mouse
# Design: key to RTV Corrective Direction / RTV Corrective Direction, Grwd1 / RTV Corrective Direction, Srrm2 / RTV Corrective Direction, Rbm17 / RTV Corrective Direction, Dcaf8 / RTV Corrective Direction, Edil3 / RTV Corrective Direction, Timp3 / RTV Corrective Direction, Heatr3 / RTV Corrective Direction, Brd4 / RTV Corrective Direction, P3h4 / RTV Corrective Direction, Pacsin3 / RTV Corrective Direction, Naa50 / RTV Corrective Direction, Lpar6 / RTV Corrective Direction, Ndrg1 / RTV Corrective Direction, Kntc1 / RTV Corrective Direction, Cdk11b / RTV Corrective Direction, Sumo1 / RTV Corrective Direction, Lsm4 / RTV Corrective Direction, Hmga2 / RTV Corrective Direction, Cstf1 / RTV Corrective Direction, Tes / RTV Corrective Direction, Sbno1 / RTV Corrective Direction, Unc119b / RTV Corrective Direction, Cfdp1 / RTV Corrective Direction, Sec61b: YES = protein abundance effect opposite to DYT/WT
# Conditions: EV protein abundance, DYT + RTV (ritonavir) vs DYT, direction compared with DYT/WT
row,Molecule,RTV Corrective Direction
1,B1,YES
2,B2,YES
3,B3,YES
4,B4,YES
5,B5,YES

# Same assay, conditions: EV protein abundance, ritonavir (RTV)-treated DYT vs DYT
row,Molecule,DYT + RTV/DYT Cohen's d
1,B1,2.85
2,B2,3.01
3,B3,4.38
4,B4,−2.80
5,B5,3.05

# System: WT MEF EVs
# Assay: Quantitative LC-MS/MS proteomics of EVs from ISRIB-treated WT MEF cultures
# Type: cell-based, mouse
# Design: key to ISRIB and DYT Parallel Direction / ISRIB and DYT Parallel Direction, Ctdsp1 / ISRIB and DYT Parallel Direction, Pcdh19 / ISRIB and DYT Parallel Direction, Tspan7 / ISRIB and DYT Parallel Direction, Myo1e / ISRIB and DYT Parallel Direction, Plpp3 / ISRIB and DYT Parallel Direction, Sh3bp4 / ISRIB and DYT Parallel Direction, Dnajc7 / ISRIB and DYT Parallel Direction, Drg1 / ISRIB and DYT Parallel Direction, Maea: YES = protein abundance effect similar to DYT/WT
# Conditions: EV protein abundance, ISRIB-treated WT vs WT
row,Molecule,WT + ISRIB/WT Cohen's d
1,B1,−1.01
2,B2,−1.43
3,B3,−1.03
4,B4,1.37
5,B5,−0.44

# Same assay, conditions: EV protein abundance, WT + ISRIB vs WT, direction compared with DYT/WT
row,Molecule,ISRIB and DYT Parallel Direction
1,B1,YES
2,B2,YES
3,B3,YES
4,B4,YES
5,B5,YES
